*1 amine or outer side, *2 acyl side, *3 side chain or, on linkers, in order; H or OH if unused. Bridges are numbered along the chain shown (N, C = ends). [ ]: non-standard residue; d: D form. Cms = N-(5-O-carboxymethyl)-serotonin, O=C(COc1ccc2[nH]cc(CCN[*:1])c2c1)[*:2]; Nle = CCCC[C@H](N)C(=O)O
T1: human NPY2 receptor (human, UniProt P49146 1-381)
T1 sequence (looked up): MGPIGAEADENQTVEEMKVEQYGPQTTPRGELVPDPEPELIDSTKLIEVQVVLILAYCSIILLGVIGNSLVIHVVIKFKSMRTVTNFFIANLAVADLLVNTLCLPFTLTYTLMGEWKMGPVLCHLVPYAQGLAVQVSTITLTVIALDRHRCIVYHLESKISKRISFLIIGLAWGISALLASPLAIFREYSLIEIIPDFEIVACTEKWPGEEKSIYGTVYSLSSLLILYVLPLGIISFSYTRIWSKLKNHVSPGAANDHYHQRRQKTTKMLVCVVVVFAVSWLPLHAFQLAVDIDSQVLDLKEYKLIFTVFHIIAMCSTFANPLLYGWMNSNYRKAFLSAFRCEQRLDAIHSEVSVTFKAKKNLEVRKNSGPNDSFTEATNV

B1: H-Ile-Lys-Pqa-Arg-His-Tyr-Leu-Asn-(D)Leu-Val-Thr-Arg-Gln-Arg-Tyr-NH2 (peptide)
peptide: IKRHYLNLVTRQRY
modifications: (D)Leu at PYY position 30 (residue 6 of the second part); Pqa moiety between the two parts; C-terminal amide
B2: H-Ile-Lys-Pqa-Arg-His-Tyr-Leu-Asn-Leu-Val-Thr-(D)Arg-Gln-Arg-Tyr-NH2 (peptide)
peptide: IKRHYLNLVTRQRY
modifications: (D)Arg at PYY position 33 (residue 9 of the second part); Pqa moiety between the two parts; C-terminal amide
B3: Ac-Ile-Ala-Pqa-Arg-His-Tyr-Leu-Asn-Leu-Val-Thr-Arg-Gln-Arg-Tyr-NH2 (peptide)
peptide: IARHYLNLVTRQRY
modifications: N-terminal acetyl; Pqa moiety between the two parts; C-terminal amide
B4: H-Ile-Lys-Pqa-Arg-His-Tyr-Leu-Asn-Leu-Val-Thr-Arg-Gln-(D)Arg-Tyr-NH2 (peptide)
peptide: IKRHYLNLVTRQRY
modifications: (D)Arg at PYY position 35 (residue 11 of the second part); Pqa moiety between the two parts; C-terminal amide
B5: Cyclo Lys28-Aspu32 Ac-Ile-Nle-Cms-Arg-His-Tyr-Lys-Asn-Leu-Val-Asp-Arg-Gln-Arg-Tyr-NH2 (peptide)
peptide: Ac-I[Nle][Cms]RHYKNLVDRQRY-NH2
modifications: lactam 7-11
SMILES: CCCC[C@H](NC(=O)[C@@H](NC(C)=O)[C@@H](C)CC)C(=O)NCCc1c[nH]c2ccc(OCC(=O)N[C@@H](CCCNC(=N)N)C(=O)N[C@@H](Cc3c[nH]cn3)C(=O)N[C@@H](Cc3ccc(O)cc3)C(=O)N[C@H]3CCCCNC(=O)C[C@@H](C(=O)N[C@@H](CCCNC(=N)N)C(=O)N[C@@H](CCC(N)=O)C(=O)N[C@@H](CCCNC(=N)N)C(=O)N[C@@H](Cc4ccc(O)cc4)C(N)=O)NC(=O)[C@H](C(C)C)NC(=O)[C@H](CC(C)C)NC(=O)[C@H](CC(N)=O)NC3=O)cc12
B6: H-Ile-Lys-Pqa-Arg-His-Tyr-Leu-Asn-Leu-(D)Val-Thr-Arg-Gln-Arg-Tyr-NH2 (peptide)
peptide: IKRHYLNLVTRQRY
modifications: (D)Val at PYY position 31 (residue 7 of the second part); Pqa moiety between the two parts; C-terminal amide
B7: H-Ala-Lys-Pqa-Arg-His-Tyr-Leu-Asn-Leu-Val-Thr-Arg-Gln-Arg-Tyr-NH2 (peptide)
peptide: AKRHYLNLVTRQRY
modifications: Pqa moiety between the two parts; C-terminal amide
B8: H-Ile-Lys-Gly-Cms-Arg-His-Tyr-Leu-Asn-Leu-Val-Thr-Arg-Gln-Arg-Tyr-NH2 (peptide)
peptide: IKGRHYLNLVTRQRY
modifications: Cms moiety between the two parts; C-terminal amide
B9: H-Ile-Lys-Pqa-Arg-His-Tyr-Leu-Asn-Leu-Val-Thr-Arg-Gln-(NMe)Arg-Tyr-NH2 (peptide)
peptide: IKRHYLNLVTRQRY
modifications: N-methyl Arg at PYY position 35 (residue 11 of the second part); Pqa moiety between the two parts; C-terminal amide

molecular target: Y1R; test: cell-based or functional assay
Sequence (P25929 whole entry): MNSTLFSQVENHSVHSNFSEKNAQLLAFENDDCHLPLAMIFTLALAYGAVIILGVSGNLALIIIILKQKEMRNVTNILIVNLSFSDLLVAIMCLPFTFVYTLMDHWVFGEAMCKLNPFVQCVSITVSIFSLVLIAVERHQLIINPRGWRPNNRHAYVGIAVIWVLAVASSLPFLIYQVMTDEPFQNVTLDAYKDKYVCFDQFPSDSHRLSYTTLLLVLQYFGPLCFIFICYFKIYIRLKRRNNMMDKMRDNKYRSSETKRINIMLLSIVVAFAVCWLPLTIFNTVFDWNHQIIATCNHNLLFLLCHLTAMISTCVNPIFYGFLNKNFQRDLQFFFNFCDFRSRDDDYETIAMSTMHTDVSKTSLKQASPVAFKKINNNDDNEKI

Q: Which “Y1R EC50(nM) FLIPR” value does the source give for B1 here?
A: > 5000 nM

Q: Which “Y1R EC50(nM) FLIPR” value does the source give for B2 here?
A: > 5000 nM

Q: B3 was tested. Which “Y1R EC50(nM) FLIPR” value did it give?
A: > 5000 nM

Q: B4 was tested. Which “Y1R EC50(nM) FLIPR” value did it give?
A: > 5000 nM

Q: B5 was tested. Which “Y1R EC50(nM) FLIPR” value did it give?
A: > 5000 nM

Q: B6 was tested. Which “Y1R EC50(nM) FLIPR” value did it give?
A: > 5000 nM

Q: With B7 as the binder, how does the “Y1R EC50(nM) FLIPR” value read?
A: > 5000 nM

molecular target: T1, human NPY2 receptor; test: cell-based or functional assay

Q: How did the “Y2R EC50(nM) FLIPR” value turn out when B8 was run?
A: 4.16 nM

Q: What about the “Y2R IC50(nM) cAMP” value of the same binder?
A: 0.085 nM

Q: What does the source list for B9?
A: Y2R EC50(nM) FLIPR: 18.9 nM; Y2R IC50(nM) cAMP: 0.417 nM

Q: For B5, which “Y2R EC50(nM) FLIPR” value is on record?
A: 146 nM

Q: What about the “Y2R IC50(nM) cAMP” value of the same binder?
A: 32.2 nM

molecular target: Y4R; test: cell-based or functional assay

Q: How did the “Y4R EC50(nM) FLIPR” value turn out when B1 was run?
A: > 5000 nM

Q: B2 was tested. Which “Y4R EC50(nM) FLIPR” value did it give?
A: > 5000 nM

Q: How did the “Y4R EC50(nM) FLIPR” value turn out when B3 was run?
A: 3020 nM

Q: B4 was tested. Which “Y4R EC50(nM) FLIPR” value did it give?
A: > 5000 nM

Q: B5 was tested. Which “Y4R EC50(nM) FLIPR” value did it give?
A: > 5000 nM

Q: For B6, which “Y4R EC50(nM) FLIPR” value is on record?
A: > 5000 nM

Q: How did the “Y4R EC50(nM) FLIPR” value turn out when B7 was run?
A: > 5000 nM

Reference: patent US7410949 (Hoffmann-La Roche, dated 2008)
